# From PMC11077774 (2024)
# B1: BicD2-CTD (C-terminal cargo-binding domain of human Bicaudal D2, residues 715-804) [human] / full-length GTP-bound Rab6a/Q72L with N-terminal GST tag [human] (parent complex)
# chain 1: YENEKAMVTETMMKLRNELKALKEDAATFSSLRAMFATRCDEYITQLDEMQRQLAAAEDEKKTLNSLLRMAIQQKLALTQRLELLELDHE
# chain 2: MSTGGDFGNPLRKFKLVFLGEQSVGKTSLITRFMYDSFDNTYQATIGIDFLSKTMYLEDRTVRLQLWDTAGLERFRSLIPSYIRDSTVAVVVYDITNVNSFQQTTKWIDDVRTERGSDVIIMLVGNKTDLADKRQVSIEEGERKAKELNVMFIETSAKAGYNVKQLFRRVAAALPGMESTQDRSREDMIDIKLEKPQEQPVSEGGCSC
# Variants of: B1
# Assay: GST pull-down, SDS-PAGE band quantification; parent: 1; read off a plot
row,Variant,ratio to parent
1,chain 2 I48A,~1.3
2,chain 2 L51A,~1.1
3,chain 2 I46A,~0.07
4,chain 2 K53A,~0.01
5,chain 2 I83A,~0.02
6,chain 2 I79A,~0.1
7,chain 2 D49A,~0.04
8,chain 2 D85A,~0.99
9,chain 2 L78A,~0.57
10,chain 2 F75A,~0.02
11,chain 2 F50A,~0.37

# The next lines start with the values.
row,ratio to parent,Variant
1,~0.07,chain 2 R63A
2,~0.75,chain 2 P80A
3,~1,chain 2 S52A
4,~0.86,chain 2 S77A
5,~0.48,chain 2 Q65A
6,~1,chain 2 S81A
7,~0.79,chain 2 T54A
8,~0.38,chain 2 Y42A
9,~0.95,chain 2 R74A
10,~0.16,chain 2 Y82A
11,~1,chain 2 Q43A
12,~0.4,chain 2 Y35A
13,~1,chain 2 R84A
